{"source": "paper PMC8931054", "about": "“Structure-guided unlocking of NaX reveals a non-selective tetrodotoxin-sensitive cation channel” (Nature Communications, 2022)", "binders": {"B1": {"name": "human β3-subunit (auxiliary NaV channel β3) (natural protein, UniProt Q9NY72 23-215, looked up)", "chain": "FPVCVEVPSETEAVQGNPMKLRCISCMKREEVEATTVVEWFYRPEGGKDFLIYEYRNGHQEVESPFQGRLQWNGSKDLQDVSITVLNVTLNDSGLYTCNVSREFEFEAHRPFVKTTRLIPLRVTEEAGEDFTSVVSEIMMYILLVFLTLWLLIEMIYCYRKVSKAEEAAQENASDYLAIPSENKENSAVPVEE", "notes": "Untagged full-length human sodium channel auxiliary β3-subunit, cloned into a pRK vector behind a CMV promoter; The full-length cDNA was expressed; also called NaVβ3; source: Expi293 cells, co-transfected with NaX, co-purified with tagged NaX"}}, "target": "T1, human NaX channel (human, UniProt Q01118 1-1682)", "T1 construct": "Full-length human NaX (sodium channel protein type 7 subunit alpha, gene SCN7A), cloned into a pRK vector behind a CMV promoter; Co-expressed and co-purified with untagged β3; No removal of the tags is described; also called SCN7A; source: Expi293 cells, co-transfected with β3, purified (anti-FLAG M2 agarose, Strep-Tactin XT, Superose 6); not shown: 2xStrepII, N-terminal, kept; 2xFLAG, …", "T1 sequence (Q01118 whole entry)": "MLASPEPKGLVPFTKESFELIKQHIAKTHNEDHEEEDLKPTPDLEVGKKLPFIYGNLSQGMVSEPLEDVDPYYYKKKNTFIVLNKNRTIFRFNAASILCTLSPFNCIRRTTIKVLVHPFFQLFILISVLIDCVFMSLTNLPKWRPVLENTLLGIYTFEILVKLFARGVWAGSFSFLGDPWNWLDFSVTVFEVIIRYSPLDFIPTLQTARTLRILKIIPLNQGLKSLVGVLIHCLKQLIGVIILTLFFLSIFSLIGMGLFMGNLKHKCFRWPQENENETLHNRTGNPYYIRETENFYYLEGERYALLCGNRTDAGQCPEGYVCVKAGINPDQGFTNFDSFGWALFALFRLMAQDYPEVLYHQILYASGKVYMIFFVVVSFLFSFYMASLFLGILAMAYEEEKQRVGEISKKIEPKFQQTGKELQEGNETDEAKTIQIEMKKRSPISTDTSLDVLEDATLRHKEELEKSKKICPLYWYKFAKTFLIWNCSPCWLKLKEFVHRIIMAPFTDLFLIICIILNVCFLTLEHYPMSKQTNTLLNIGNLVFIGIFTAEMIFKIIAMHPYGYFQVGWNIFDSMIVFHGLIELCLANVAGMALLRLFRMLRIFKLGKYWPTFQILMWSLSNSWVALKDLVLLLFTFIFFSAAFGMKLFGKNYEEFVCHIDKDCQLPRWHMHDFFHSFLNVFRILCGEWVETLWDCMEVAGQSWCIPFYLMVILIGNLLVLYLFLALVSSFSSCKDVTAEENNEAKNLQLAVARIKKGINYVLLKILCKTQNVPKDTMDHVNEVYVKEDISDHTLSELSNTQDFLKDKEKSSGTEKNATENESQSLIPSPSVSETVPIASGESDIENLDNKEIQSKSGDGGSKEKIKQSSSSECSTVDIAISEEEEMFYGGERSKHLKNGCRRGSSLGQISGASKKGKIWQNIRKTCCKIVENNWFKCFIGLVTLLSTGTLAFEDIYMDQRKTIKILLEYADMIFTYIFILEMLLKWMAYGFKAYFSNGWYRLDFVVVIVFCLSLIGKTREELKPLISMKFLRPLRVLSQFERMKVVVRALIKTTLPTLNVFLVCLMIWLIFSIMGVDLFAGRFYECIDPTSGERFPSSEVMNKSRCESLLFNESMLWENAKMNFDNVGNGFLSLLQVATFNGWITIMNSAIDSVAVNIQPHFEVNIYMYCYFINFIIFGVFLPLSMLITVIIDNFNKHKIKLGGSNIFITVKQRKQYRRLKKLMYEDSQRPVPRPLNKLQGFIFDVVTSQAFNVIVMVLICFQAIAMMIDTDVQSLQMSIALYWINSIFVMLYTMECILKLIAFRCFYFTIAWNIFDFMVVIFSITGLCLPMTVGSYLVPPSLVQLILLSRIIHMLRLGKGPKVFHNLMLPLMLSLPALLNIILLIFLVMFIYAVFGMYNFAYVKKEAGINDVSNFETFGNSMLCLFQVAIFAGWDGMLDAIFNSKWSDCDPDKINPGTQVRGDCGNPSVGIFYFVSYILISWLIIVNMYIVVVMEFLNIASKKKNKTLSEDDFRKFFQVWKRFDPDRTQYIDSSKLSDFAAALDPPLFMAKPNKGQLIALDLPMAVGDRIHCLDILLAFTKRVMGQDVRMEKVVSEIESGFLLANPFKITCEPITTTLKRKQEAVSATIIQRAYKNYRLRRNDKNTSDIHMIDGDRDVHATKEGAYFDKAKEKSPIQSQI", "assay": "cryo-EM structure; β3-NaX complex co-expressed in Expi293, purified in GDN by the tags on NaX, reconstituted into POPC:POPE:POPG nanodiscs (MSP1E3D1); 25 mM HEPES pH 7.0, 200 mM NaCl; cross-linked with 0.05% glutaraldehyde before vitrification", "settings": "both partners purified", "data": [{"binder": "B1", "values": [{"measurement": "binding result", "value": "binds"}]}]}
